T1: human IL-23R (human, UniProt Q5VWK5 24-353, limits assumed)
T1 construct: also called huIL-23R; human interleukin-23R
T1 sequence: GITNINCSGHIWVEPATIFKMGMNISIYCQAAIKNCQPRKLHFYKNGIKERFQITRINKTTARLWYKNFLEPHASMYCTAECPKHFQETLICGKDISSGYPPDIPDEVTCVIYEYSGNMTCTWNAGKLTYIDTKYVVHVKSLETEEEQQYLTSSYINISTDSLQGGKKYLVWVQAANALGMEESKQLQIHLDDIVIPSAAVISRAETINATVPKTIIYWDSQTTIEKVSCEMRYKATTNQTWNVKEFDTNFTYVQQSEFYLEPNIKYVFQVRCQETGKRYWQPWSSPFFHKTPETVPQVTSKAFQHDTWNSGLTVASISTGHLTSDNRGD


Tests used:
[1] = biological target: T1, human IL-23R; assay: KinExA
Procedure: (§1) The equilibrium dissociation constants (Kd) for anti human IL-23R antibodies are determined using the KinExA. 3000 instrument. Sapidyne Instruments Inc., Boise Id., USA. KinExA uses the principle of the Kinetic Exclusion Assay method based on measuring the concentration of uncomplexed antibody in a mixture of antibody, antigen and antibody-antigen complex. The concentration of free antibody is measured by exposing the mixture to a solid-phase immobilized antigen for a very brief period of time. In practice, this is accomplished by flowing the solution phase antigen-antibody mixture past antigen-coated particles trapped in a flow cell. Data generated by the instrument are analyzed using custom software. Equilibrium constants are calculated using a mathematical theory based on the lowing assumptions: [0177] 1. The binding follows the reversible binding equation for equilibrium: […]
PMMA particles (Sapidyne, Cat No. 440198) are coated with biotinylated IL-23R (or a fragment thereof, such as the extracellular domain) according to Sapidyne “Protocol for coating PMMA particles with biotinylated ligands having short or nonexistent linker arms.” EZ-link TFP PEO-biotin (Pierce, Cat. No. 21219) is used to make biotinylated IL-23R, as per the manufacturer's recommendations (Pierce bulletin 0874).

[2] = biological target: T1, human IL-23R; assay: BIAcore SPR, antibody immobilised
Procedure: (§2) BIAcore® label-free interaction analysis system determinations are performed essentially as described at Example 4 of U.S. Patent Application Publication No. 2007/0048315, which is hereby incorporated by reference. Briefly, ligands (anti-IL-23R mAbs) are immobilized on a BIAcore® label-free interaction analysis system CM5 sensor chip using standard amine-coupling procedure. Kinetic constants for the various interactions are determined using BIAevaluation software 3.1. The Kd is determined using the calculated dissociation and association rate constants.

[3] = biological target: T1, human IL-23R; assay: BIAcore SPR, antibody immobilised; remark: listed apart in the source
Procedure: as §2
Several sequence variants intended to increase the chemical stability of hu8B10-b were produced to evaluate their effects on binding affinity. Kd values are provided at Table 3. Binding to human IL-23R was determined using the BIAcore® label-free interaction analysis system (surface plasmon resonance), essentially as described in Example 4 (supra). Chimeric forms, designated as “chim,” refers to rat variable domains linked to human IgG1 heavy chain and human kappa light chain constant domains, e.g., as presented at SEQ ID NOs: 16 and 17, respectively, or as at SEQ ID NOs: 22 and 23, respectively. Sequences for heavy and light chain variable domains are provided at FIGS. 1 and 2, and in the Sequence Listing (as described at Table 4). Antibodies incorporate the sequence changes recited in the table (“Variant(s)”) for the respective heavy and light chains. Data arc presented as mean±standard deviation for multiple determinations, and without error estimates for single determinations.

[4] = biological target: T1, human IL-23R; assay: KinExA, full-length chimeric antibody; original sequence (no N31T)
Procedure: as §1
(§3) PMMA particles (Sapidyne, Cat No. 440198) are coated with biotinylated IL-23R (or a fragment thereof, such as the extracellular domain) according to Sapidyne “Protocol for coating PMMA particles with biotinylated ligands having short or nonexistent linker arms.” EZ-link TFP PEO-biotin (Pierce, Cat. No. 21219) is used to make biotinylated IL-23R, as per the manufacturer's recommendations (Pierce bulletin 0874). […]

[5] = biological target: T1, human IL-23R; assay: KinExA, full-length chimeric antibody
Procedure: as §1, §3

[6] = biological target: T1, human IL-23R; assay: KinExA, full-length chimeric antibody; N31T variant, full-length chimeric
Procedure: as §1, §3

Binder	Kd [1] [nM]	Kd [2] [nM]	Kd [3] [nM]	Kd [4] [nM]	fold improvement in binding affinity against the original sequence [5] [fold]	Kd [6] [nM]
rat anti-human IL-23R antibody 8B10 (antibody, rat IgG2a, V domains shown, also called r8B10) VH: EVKLVESGGGLEQPKGSLKLSCTVSGFDFNSYGMSWVRQAPGKGLDLVADINSKSYNYATYYADSVKDRFTISRDDSQSMVYLEMDNLKTEDTALYYCTVHHSDYFEYWGQGVMVTVSS VL: DIQMTQSPASLSASLGETVSIECLASEDIYNNLAWYQQKPGKSPQLLIYHASSLQDGVPSRFSGSGSGTQYSLKINSLESEDAATYFCLQDSEYPPTFGGGTKLELKR	0.042	~0.3	0.27			
chimeric 8B10 full-length antibody (antibody, V domains shown, also called chim8B10) VH: EVKLVESGGGLEQPKGSLKLSCTVSGFDFNSYGMSWVRQAPGKGLDLVADINSKSYNYATYYADSVKDRFTISRDDSQSMVYLEMDNLKTEDTALYYCTVHHSDYFEYWGQGVMVTVSS VL: DIQMTQSPASLSASLGETVSIECLASEDIYNNLAWYQQKPGKSPQLLIYHASSLQDGVPSRFSGSGSGTQYSLKINSLESEDAATYFCLQDSEYPPTFGGGTKLELKR			0.345	0.025		
full-length chimeric 8B10 antibody, VL N31T (antibody, V domains shown, also called N31T variant) VH: EVKLVESGGGLEQPKGSLKLSCTVSGFDFNSYGMSWVRQAPGKGLDLVADINSKSYNYATYYADSVKDRFTISRDDSQSMVYLEMDNLKTEDTALYYCTVHHSDYFEYWGQGVMVTVSS VL: DIQMTQSPASLSASLGETVSIECLASEDIYTNLAWYQQKPGKSPQLLIYHASSLQDGVPSRFSGSGSGTQYSLKINSLESEDAATYFCLQDSEYPPTFGGGTKLELKR					3	0.008

— US20110158992A1 (SCHERING, published 2011)
